Laboratory results from patent US11549115B2, “Compositions and methods for regulated gene expression” (YALE UNIVERSITY, priority 2017, dated 2023).
Positions count from the first letter of the chain named.

Legend:
[1] = test system: B. thetaiotaomicron; test: Polymyxin B susceptibility (MIC, E-test strips); assay type: cell-based, Bacteroides thetaiotaomicron; conditions: for PMB resistance of B. thetaiotaomicron lpxF mutant expressing lpxF from the promoter: no TetR
Description: Minimum inhibitory concentrations (MICs) were determined on solid medium using E-test strips (Biomerieux) as previously described (Cullen, T. W. et al., 2015, Science, 347:170-175), except that cultures were initially grown for 18 hours in liquid medium. Cultures were adjusted to OD600˜1.0 and 100 μL of cell suspension was then spread onto BHI-blood agar plates. Surface liquid was allowed to dry in a fume hood for 10 minutes, followed by application of the E-test strip to the agar surface.

[2] = test system: B. thetaiotaomicron; conditions: cited from earlier work
[3] = test system: sialidases; conditions: cited from earlier work
[4] = test system: NanoLuc luciferase reporter in B. thetaiotaomicron; test: NanoLuc luciferase assay from in vitro samples (promoter activity); assay type: cell-based, Bacteroides thetaiotaomicron
Description: The NanoLuc luciferase assay was performed as described (Mimee, M. et al., 2015, Cell Syst., 1:62-71), with the following modifications. All strains were first grown for 18 hours in TYG medium or Gut Microbiota Medium and diluted 250-fold into fresh medium in appropriate conditions (with or without aTC). Cultures were grown to mid exponential phase (OD600 0.3-0.4) and colony forming units (CFU) were measured by dilution plating. 500 μL of the culture was centrifuged at 21,130×g for 3 minutes, resuspended in 50 μL 1× BugBuster (Novagen) in 1×PBS and lysed by one cycle of freeze-thaw and nutation at 26° C. for 10 minutes. Lysates were cleared of cellular debris by centrifugation at 21,130×g for 10 minutes at 4° C. 10 μL of the supernatant was mixed with an equal volume of NanoLuc Reaction Buffer using the Nano-Glo Luciferase Assay System (Promega) and incubated for 5 minutes at 26° C. to induce luminescence production. Relative Light Units (RLU) were measured using a fluorescence plate reader (BioTek Synergy H1) with an integration time of 1 second at a gain setting of 100. Luminescence values were normalized to colony forming units (CFUs) because experimental conditions (e.g., growth medium, antibiotics, aTC, heterologous gene expression) affect the correlation between CFUs and OD600 in Bacteroides.

[5] = test system: B. thetaiotaomicron; test: aTC-induced expression of periplasm-targeted T6SS effectors (viability, culture density); assay type: cell-based, Bacteroides thetaiotaomicron; conditions: under P1TDP in Bt::tetR, aTC added
From the text: To direct Bte1 and Bfe1 to the periplasm upon expression in B. thetaiotaomicron, the genes encoding each effector were first PCR amplified from genomic DNA purified from B. fragilis NCTC 9343 and B. fragilis 638R, respectively, using the CTAB method. A periplasmic localization signal was searched for that would be cleaved after translocation to prevent steric hindrance of the effector. To identify proteins that encode N-terminal B. thetaiotaomicron periplasmic localization signals that are post-translationally cleaved after protein translocation, the proteome of the Bacteroides thetaiotaomicron VPI-5482 chromosome was searched for signal peptides (PTM/Processing; Molecule Processing, Signal Peptide) using UniProt (UniProt Consortium, 2015, Nucleic Acids Research, 43:D204-D212). To exclude membrane proteins that potentially encode an uncleaved signal peptide, the search was refined by an additional query for the term “periplasmic” under Protein name. To identify a short periplasmic signal, the maximum length for the signal peptide was set at 20 amino acids. […] Therefore, the B. fragilis effectors were fused at the 5′ end (minus the ATG start codon) to the first 63 base pairs (encoding the first 21 amino acids) of the BT4676 open reading frame (see Table 2 for sequence) in order to localize them to the periplasm after expression in B. thetaiotaomicron.

Molecule: polymixin B [PMB]
- PMB MIC ([1]; Bt::tetR lpxF carrying P1TDP-lpxF fusion, TetR repressed, no aTC): < 0.064 µg/mL
- reduction of PMB MIC by TetR repression of P1TDP-lpxF ([1]; Bt::tetR lpxF, no aTC): over 10,000 fold
- PMB MIC ([1]; wildtype B. thetaiotaomicron): > 1024 µg/mL
- reduction of PMB resistance by deletion of lpxF [2]: four orders of magnitude

Molecule: CC(=O)N[C@H]1[C@H]([C@H](O)[C@H](O)CO)O[C@@](Oc2ccc([N+](=O)[O-])cc2)(C(=O)O)C[C@@H]1O [pNP-SA, 2-O-(p-Nitrophenyl)-t-D-N-acetylneuraminic acid]
- Km [3]: 110 µM

B1: P1TP: Synthetic aTC-inducible promoter (proximal tetO2) + RBS GH023 (nucleic acid)
DNA: TTTTGCACCCGCTTTCCAAGAGAAGAAAGCCTTGTTAAATTGACTTAGTGTAAAAGCGCAGTACTGCTTGACCATAAGAACAAAAAAACTTCCGATAAAGTTTGGAAGATAAAGCTAAAAGTTCTTATCTTTGCAGTCTCCCTATCAGTGATAGAGACGAAATAAAGACATATAAAAGAAAAGACACCATG
modifications: P1TPSynthetic aTC-inducible promoter (proximal tetO2)+RBS GH023
- PMB resistance of B. thetaiotaomicron lpxF mutant expressing lpxF from the promoter [1]: increases PMB resistance to wildtype levels

B2: P1TDP^B40: Synthetic aTC-inducible promoter (distal and proximal tetO2) + RBS B40 (nucleic acid)
DNA: TTTGCACCCGCTTTCCAAGAGAAGAAAGCCTTGTTAAATTGACTTAGTGTAAAAGCGCAGTACTGCTTGACCATAAGAACAAAAAAATCTCTATCACTGATAGGGATAAAGTTTGGAAGATAAAGCTAAAAGTTCTTATCTTTGCAGTCTCCCTATCAGTGATAGAGACGCATTTTAAAATAAAATAAATCATGTAGTTAATTAAACGAATCCATG
modifications: P1TDP-B40 Synthetic aTC-inducible promoter (distal and promixal tetO2)+RBS B40
- increase of dynamic response to aTC over P1TDP^GH023 ([4]; Bt::tetR): 3.3 fold
- reporter expression relative to background in uninduced state ([4]; Bt::tetR (TetR present), no aTC): 1.4 fold
- induction of reporter activity (luminescence) in response to aTC ([4]; Bt::tetR, aTC 100 ng/mL): 9,100 fold

B3: P1TDP^A21: Synthetic aTC-inducible promoter (distal and proximal tetO2) + RBS A21 (nucleic acid)
DNA: B2 DNA with C191T, G194T, G197T, T198G, T199A, A200T
modifications: P1TDP-A21 Synthetic aTC-inducible promoter (distal and promixal tetO2)+RBS A21
- luminescence higher than the strongest native promoter tested ([4]; ON state, 18 native B. thetaiotaomicron promoters): 14 fold

B4: P1TDP^C56: Synthetic aTC-inducible promoter (distal and proximal tetO2) + RBS C56 (nucleic acid)
DNA: B2 DNA with C191T, G194T, T195C, A196G, G197T, A201G
modifications: P1TDP-C56 Synthetic aTC-inducible promoter (distal and promixal tetO2)+RBS C56
- luminescence lower than the weakest native promoter tested ([4]; OFF state, 18 native B. thetaiotaomicron promoters): 6.7 fold

B5: P1TD: Synthetic aTC-inducible promoter (distal tetO2) + RBS GH023 (nucleic acid)
DNA: TTTGCACCCGCTTTCCAAGAGAAGAAAGCCTTGTTAAATTGACTTAGTGTAAAAGCGCAGTACTGCTTGACCATAAGAACAAAAAAATCTCTATCACTGATAGGGATAAAGTTTGGAAGATAAAGCTAAAAGTTCTTATCTTTGCAGTCCGAAATAAAGACATATAAAAGAAAAGACACCATG
modifications: P1TD Synthetic aTC-inducible promoter (distal tetO2)+RBS GH023
- PMB resistance of B. thetaiotaomicron lpxF mutant expressing lpxF from the promoter [1]: increases PMB resistance to wildtype levels

B6: P1: Constitutive promoter of Bacteroides 16S rDNA (BT_r09 P1) (nucleic acid)
DNA: TTTTGCACCCGCTTTCCAAGAGAAGAAAGCCTTGTTAAATTGACTTAGTGTAAAAGCGCAGTACTGCTTGACCATAAGAACAAAAAAACTTCCGATAAAGTTTGGAAGATAAAGCTAAAAGTTCTTATCTTTGCAGTC
modifications: Constitutive promoter (last nucleotide is +1 TSS)
- effect of TetR on promoter activity ([4]; Bt::tetR, no aTC): no effect
- PMB resistance of B. thetaiotaomicron lpxF mutant expressing lpxF from the promoter [1]: increases PMB resistance to wildtype levels

B7: ss-Bte1: Periplasmic localized T6SS effector from B. fragilis NCTC 9343 (protein)
chain: MKKILSLLVMAIVAIQFSFAGGKEIEIKKLPEFEAMVNAGNTTYTGLVEGIGYVYWTTETLYFIRTNPEQLWAIPKYQQIPFPYFQRKDAIIETKTLHTLHVLSKDELLKLDYDAYYAFYGIVEEMLKFIHRADAIKSYCEIPLPIIKSKGALKGNDARNGILSLGSQINDQIGAPLDAANMLMDNKHIGKIGDGLSLISIIDEVGNGEYWSAAGDILLFAAGKTKLSPYMTVISLGTWMYETDLMQWRLACINYSDYKKTLIKYRELQKKFESGDKSVEEKMNECHKILNSHYIEMQKNLGNLGVKF
modifications: Periplasmic-localized T6SS effector from B. fragilis NCTC 9343
- toxicity on expression in B. thetaiotaomicron [5]: highly toxic

B8: ss-Bfe1: Periplasmic localized T6SS effector from B. fragilis 638R (protein)
chain: MKKILSLLVMAIVAIQFSFAGAYRNEYKTQSEFNVILERGDDYEGFVVGLGYTWMSSKVILPVNQNGWSPISRNVSVDESFHTIVSERKYDTSQYAYEKSLMQDPTKVSEKVRDLIVKNKGNNITEINLGQEKQYLPTDNSQISIVITDTGSRYEIVISATDNSNGKTYEAKYESLTDLVSAVRDSGSLPAVNKEGPNLEGLAGLGFGIAETAGNWAEKIMDNRGAYLPKQMRFSPKTLPPIIRLPLGNYQVPAKGMSRVRGVGKALGWAGMVLTGYQVVRDVQNGRFAVAGTRIAVAGLAYGVTFIPYVGWVLAIGIGVADYTWGDEFYDWIDNRASELEMWWDGVRLAL
modifications: Periplasmic-localized T6SS effector from B. fragilis 638R
- toxicity on expression in B. thetaiotaomicron [5]: highly toxic

B9: P2: Constitutive promoter of Bacteroides 16S rDNA (nucleic acid)
DNA: AAGAAAAGGCGTTTTGTTTTTCTTCTTTACCTTCTTTCCCTTTCGCTAAGAGAGTCTGAGAAACGATAGAAAAAGAAAAGCGAAAAAACTTCCGAAAACATTTGGTAGTTAAAATAAAACCTCTTACCTTTGCACCC
modifications: P2 Constitutive promoter (last nucleotide is +1 TSS)
notes: Constitutive promoter of Bacteroides 16S rDNA
- PMB resistance of B. thetaiotaomicron lpxF mutant expressing lpxF from the promoter [1]: increases PMB resistance to wildtype levels
